Experiment [1] concerns the target T1, recombinant human LY6H-ECD (C-terminal histidine tag) (human, UniProt O94772 26-115).
T1 construct: The ectodomain was cloned by PCR with a non-native signal peptide and a C-terminal histidine tag; also called recombinant LY6H; hLY6H-ECD; not shown: C-terminal histidine tag
T1 sequence (looked up): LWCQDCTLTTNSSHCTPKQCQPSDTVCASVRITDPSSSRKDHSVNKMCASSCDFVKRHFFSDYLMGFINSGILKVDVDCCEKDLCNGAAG
In words: Octet Red BLI, antibody on Protein A biosensor, recombinant human LY6H in solution. As for the experimental part: Affinity: The affinity of antibodies to various recombinant LY6H protein was determined on an Octet Red™ instrument. After loading reagents into a 96-well plate, the Octet Red with Protein A-conjugated biosensors was programmed as follows: 30 seconds for baseline #1; 120 seconds to immobilize the antibody; 30 seconds for baseline #2; 300 seconds for association of antibody to recombinant LY6H; and 300-600 seconds for dissociation of recombinant LY6H from the antibody.

Experiment [2] addresses T2, human LY6H, endogenous on cancer cell lines (H446, DMS79, H526, MOLT3, KE-37) (human, UniProt O94772 26-115).
T2 construct: Endogenous protein on human SCLC and T-ALL cell lines
T2 sequence (looked up): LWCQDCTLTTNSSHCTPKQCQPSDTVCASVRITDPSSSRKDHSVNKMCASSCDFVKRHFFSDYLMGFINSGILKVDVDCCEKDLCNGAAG
The experiment can be described thus: flow cytometry, antibody titrated 0.1-100 nM on H446 cells, MFI; column H446_EC50 (nM). Here is the method: (§1) The assay uses 3-5 fold dilutions (from 100 nM to 0.1 nM) of antibody of a stock antibody concentration (100 nM) in binding buffer. Serial diluted antibodies were incubated with live cells on ice for 30 minutes, after a brief wash, cells were incubated with Alexa Fluro® 488-conjugated anti-human IgG secondary antibody @1:100, or 15 μg/ml (709-546-149, Jackson ImmunoResearch). Acquisition of the MFI (Median Fluorescent Intensity) was performed on a MACSQuant® Flow Cytometers (Miltenyi Biotec). EC₅₀ was calculated using Dose-response EC₅₀ shift by global fitting from GraphPad Prism.
(§2) An estimate of affinity is interpreted from one-half the concentration at which antibody binding first achieves saturation.
Background: In flow cytometry, cells or beads pass a laser one at a time.

For experiment [3], the target named is T2, human LY6H, endogenous on cancer cell …. In words: flow cytometry, antibody titrated 0.1-100 nM on MOLT3 cells, MFI; upper panel and table, column MOLT3_EC50 (nM). As for the experimental part:
as §1, §2

The target is the same in experiment [4]. The experiment can be described thus: flow cytometry, antibody titrated 0.1-100 nM on DMS79 cells, MFI; upper panel and table, column DMS79_EC50 (nM). Here is the method:
as §1, §2

Experiment [5] shares this target. The experiment can be described thus: flow cytometry, antibody titrated 0.1-100 nM on H526 cells, MFI; column H526_EC50 (nM); curve has no plateau at 100 nM. Here is the method:
as §1, §2

Experiment [6] has the same target. The experiment can be described thus: flow cytometry, antibody titrated 0.1-100 nM on H526 cells, MFI; column H526_EC50 (nM); value lies above the highest concentration tested, curve has no plateau. As for the experimental part:
as §1, §2

The target is the same in experiment [7]. The experiment can be described thus: flow cytometry, antibody titrated 0.1-100 nM on DMS79 cells, MFI; lower panel and table, column DMS79_EC50 (nM). As for the experimental part:
as §1, §2

Experiment [8] deals with T3, Macaca fascicularis LY6H expressed on 293T cells (plasmid BBP 492/598, M1-P140 plus Myc-DDK) (Macaca fascicularis, UniProt Q4R5M8 26-115).
T3 construct: Full construct as encoded; also called monkey LY6H; not shown: Myc-DDK tag at the C-terminus
T3 sequence: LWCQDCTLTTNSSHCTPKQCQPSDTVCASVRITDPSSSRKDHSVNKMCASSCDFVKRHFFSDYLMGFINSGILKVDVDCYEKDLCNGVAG
The experiment can be described thus: flow cytometry on 293 cells expressing Macaca fascicularis LY6H (293-neo-cyno LY6H); antibody 1 ug/ml per paragraph 484; solid histogram = hIgG1 control [cont.]. As for the experimental part:
Staining for flow cytometry was performed in 1× cold PBS with 0.5% BSA.

Experiment [9] has as its target T2, human LY6H, endogenous on cancer cell …. The experiment can be described thus: flow cytometry, antibody titrated 0.1-100 nM on MOLT3 cells, MFI; lower panel and table, column MOLT3_EC50 (nM). As for the experimental part:
as §1, §2

The target is the same in experiment [10]. In words: flow cytometry, antibody titrated 0.1-100 nM on H526 cells, MFI; column H526_EC50 (nM). As for the experimental part: as §1, §2
Experiment [11] addresses T3, Macaca fascicularis LY6H expressed on …. The experiment can be described thus: on-cell affinity by flow cytometry: unconjugated 12G7 (0.05-100 nM) competes with 1 nM PE-conjugated 12G7 on 293T cells expressing Macaca fascicularis LY6H (per legend paragraph 131); table row 293T-mmLY6H. As for the experimental part:
Serial diluted antibodies were incubated with 293 cells expressing either human or Macaca fascicularis on ice for 4 hours, after a brief wash. Acquisition of the MFI (Median Fluorescent Intensity) was performed on a MACSQuant® Flow Cytometers (Miltenyi Biotec). On cell affinity (Kd) was calculated using dose-response EC50 shift by global fitting from GraphPad Prism™.
Serial diluted antibodies were incubated with live cells on ice for 4 hours, after a brief wash. Acquisition of the MFI (Median Fluorescent Intensity) was performed on a MACSQuant® Flow Cytometers (Miltenyi Biotec). On cell affinity (Kd) was calculated using Dose-response EC₅₀ shift by global fitting from GraphPad Prism™.

We go through eleven molecules from patent publication US20250319180A1 (BLUEFIN BIOMEDICINE, published 2025).

What is called Kd is the equilibrium constant for the complex coming apart. One may read the EC50 as the midpoint of the concentration-response curve.

B1: 11D9 (antibody, V domains shown)
VH: QVQLQESGPGLVKPSGTLSLTCTVSGGSISSSSWWSWVRLPPGKGLEWIGEIYHSGSTNYNPSLKSRVTISVDKSKNQFSLKLSSVTAADTAVYYCGGVRGVVMAFDIWGQGTMVTVSS
VL: not shown
notes: also called 11D9_19D5
As for B1, in experiment [1], the Kd is 31 nM. For the same molecule, the EC50 came to 2.6 nM in [2], 1.4 nM in experiment [3], 2.2 nM in experiment [4] and 13.2 nM in experiment [5].

B2: 22A5_19A5 (antibody, V domains shown)
VH: QVQLVESGGGVVQPGRSLRLSCAASGFTFSSYGMHWVRQAPGKGLEWVAVIWYDGSNKYYADSVKGRFTISRDNSKNTLYLQMNSLRAEDTAVYYCARDLWFGESRGGMDVWGQGTTVTVSS
VL: not shown
notes: human anti-LY6H antibody
In turn, B2 yielded an EC50 in [6] of 122 nM.

B3: 6D11 (antibody, V domains shown)
VH: QVQLQQWGAGLFKPSETLSLTCAVYGGSFSGSLWSWIRQPPGKGLEWIGEINHSGSTNYTPSLKSRVTISVDTSKNQFSLKLTSVTAADTAVYYCARGRHIVVVTAIHSPFDYWGQGTLVTVSS
VL: DIQMTQSPSSLSASVGDRVTITCRASQGISNYLAWYQQKPGKVPKLLIFAASTLQSGVPSRFSGSGSGTDFTLTISSLQPEDVATYYCQKYNSAPRTFGQGTKLEIK
notes: Recombinant antibody made in CHO cells; also called 6D11_25D6
On to B3, for which the EC50 in [7] came out at 1.3 nM; in [9], 0.6 nM. For the same molecule, the binding result in experiment [8] is reported as “binds”. Besides, the Kd in experiment [1] was 22 nM.

B4: 12G7 (antibody, V domains shown)
VH: QVQLQQWGAGLLKPSETLSLTCAVYGGSFSGYYWSWIRQPPGKGLEWIGEINHSGSTYYNPSLKSRVTMSVDTSKNQFSLKLSSVTAADTAVYYCAKRWELGAFDIWGQGTMVTVSS
VL: DIQMTQSPSSLSASVGDRVTITCRASQGISNYLAWYQQKPGKVPKLLIYAASTLQSGVPSRFSGSGSGTDFTLTISSLQPEDVATYYCQKYNSAPRTFGQGTKLEIK
notes: Recombinant antibody from H2L2 mice (human variable regions), made in CHO cells, purified on Protein A and detected with anti-human IgG; also called 12G7_19A2; anti-LY6H antibody (12G7)
With B4, the EC50 in [7] stood at 1.9 nM; in [10], 1.9 nM; in experiment [2] it was 3 nM; in [3], 0.7 nM; in experiment [4], 2.4 nM; in experiment [9], 0.8 nM. Also, the Kd was found to be 4 nM in experiment [1] and 14.5 nM in [11].

B5: 10B10 (antibody, V domains shown)
VH: QVQLQQWGAGLLKPSETLSLTCAVYGGSFSGYYWHWIRQPPGKGLEWIGEINHSESTKYNPSLKSRVTISVDTSKNQFSLKLSSVTGADTAVYYCARGQHIVVVTDSLGDYWGQGTLVTVSS
VL: DIQMTQSPSSLSASVGDRVTITCRASQGISNYLAWYQQKPGKVPKLLIYAASTLQSGVPSRFSGSGSGTDFTLTISSLQPEDVATYYCQKYNSAPRTFGQGTKLEIK
notes: also called 10B10_25A1
On to B5, for which the EC50 was 2 nM in [7] and 0.7 nM in experiment [9]. Also, the Kd in experiment [1] worked out at 47 nM.

B6: 12G7-S54A (antibody, V domains shown)
VH: QVQLQQWGAGLLKPSETLSLTCAVYGGSFSGYYWSWIRQPPGKGLEWIGEINHAGSTYYNPSLKSRVTMSVDTSKNQFSLKLSSVTAADTAVYYCAKRWELGAFDIWGQGTMVTVSS
VL: DIQMTQSPSSLSASVGDRVTITCRASQGISNYLAWYQQKPGKVPKLLIYAASTLQSGVPSRFSGSGSGTDFTLTISSLQPEDVATYYCQKYNSAPRTFGQGTKLEIK
Consider B6, for which the Kd in [1] is 4 nM.

B7: 6D11-41B4 (antibody, V domains shown)
VH: QVQLQQWGAGLFKPSETLSLTCAVYGGSFSGSLWSWIRQPPGKGLEWIGEINHAGSTQYTPSLKSRVTISVDTSKNQFSLKLTSVTAADTAVYYCARGRHIVVVTAIHSPFDYWGQGTLVTVSS
VL: DIQMTQSPSSLSASVGDRVTITCRASQGISNYLAWYQQKPGKVPKLLIFAASTLQSGVPSRFSGSGSGTDFTLTISSLQPEDVATYYCQKYNSAPRTFGQGTKLEIK
B7: in [1], the Kd is 25 nM.

B8: 10B10-S54A (antibody, V domains shown)
VH: QVQLQQWGAGLLKPSETLSLTCAVYGGSFSGYYWHWIRQPPGKGLEWIGEINHAESTKYNPSLKSRVTISVDTSKNQFSLKLSSVTGADTAVYYCARGQHIVVVTDSLGDYWGQGTLVTVSS
VL: DIQMTQSPSSLSASVGDRVTITCRASQGISNYLAWYQQKPGKVPKLLIYAASTLQSGVPSRFSGSGSGTDFTLTISSLQPEDVATYYCQKYNSAPRTFGQGTKLEIK
Take B8: in experiment [1], the Kd came out at 42 nM.

B9: 23F3 (antibody, V domains shown)
VH: QVQLQESGPGLVKPSGTLSLTCAVSGGSISSSNWWSWVRQPPGKGLEWIGEIYHSGSTNYNPSLKSRVTISVDKSKNQFSLKLSSVTAADTAVYYCARVDILTGGNFDYWGQGTLVTVSS
VL: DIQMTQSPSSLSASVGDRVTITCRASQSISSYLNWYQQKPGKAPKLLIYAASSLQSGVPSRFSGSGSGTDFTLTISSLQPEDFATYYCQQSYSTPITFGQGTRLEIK
notes: also called 23F3_19B2
As to B9, the EC50 was 2.3 nM in [2], 5.4 nM in [3], 17.8 nM in [4] and 73.5 nM in [5].

B10: 2B11 (antibody, V domains shown)
VH: QVQLVESGGGVVQPGRSLRLSCAASGFTFSNYGMHWVRQAPGKGLEWVAVIWYDGSNKYYADSVKGRFTISRDNSKNTLYLQMNSLRTEDTAVYYCARSIVVVTATLDYWGQGTLVTVSS
VL: not shown
notes: also called 2B11_25D1
For the molecule B10, the EC50 was found to be 3.4 nM in experiment [7] and 3.9 nM in [9].

B11: 34H6 (antibody, V domains shown)
VH: QVQLVESGGGVVQPGRSLRLSCAASGFTFSSYGMHWVRQAPGKGLEWVAVIWYDGSNKYYADSVKGRFTISRDNSKNTLYLQMNSLRAEDTAVYYCARSIVVVTGFGDYWGQGTLVTVSS
VL: not shown
notes: also called 34H6_20A1
Consider B11, for which the EC50 came to 2.9 nM in experiment [10], 2.4 nM in [2], 0.7 nM in experiment [3] and 0.9 nM in experiment [4].
